Measurements taken from PMC11821514 (Nature Cell Biology, 2025).

Experiments:
GST–Atg11^685–1178 = biological target: T1, GST–Atg11^685–1178 (budding yeast, UniProt Q12527 685-1178); assay: pull-down; GST fusions on GSH beads incubated with purified recombinant Atg19^3D, 20 min at room temperature; six washes with GST-wash buffer containing 0.02% Tween-20; immunoblotting; conditions: both partners purified
T1 construct: also called C-terminal fragment of Atg11; not shown: GST, N-terminal, kept
T1 sequence (looked up): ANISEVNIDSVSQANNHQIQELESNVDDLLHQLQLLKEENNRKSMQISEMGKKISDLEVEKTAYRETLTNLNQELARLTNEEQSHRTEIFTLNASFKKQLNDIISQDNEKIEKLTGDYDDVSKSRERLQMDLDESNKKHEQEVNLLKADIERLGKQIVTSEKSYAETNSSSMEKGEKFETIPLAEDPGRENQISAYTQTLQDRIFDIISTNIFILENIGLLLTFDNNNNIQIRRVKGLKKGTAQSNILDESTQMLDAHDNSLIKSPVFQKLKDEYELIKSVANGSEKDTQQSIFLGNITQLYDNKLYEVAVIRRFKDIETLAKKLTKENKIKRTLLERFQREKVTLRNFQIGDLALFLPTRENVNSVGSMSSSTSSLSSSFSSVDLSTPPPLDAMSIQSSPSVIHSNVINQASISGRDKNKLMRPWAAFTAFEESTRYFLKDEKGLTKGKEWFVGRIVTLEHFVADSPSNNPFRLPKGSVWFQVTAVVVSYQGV

StrepII–GFP–Atg11 = biological target: T2, StrepII–GFP–Atg11 (budding yeast, UniProt Q12527 1-1178); assay: bead binding assay read by fluorescence microscopy; GST–BFP fusion on GSH beads incubated with preformed GFP–Atg11 condensates (purified by the methods and results, Sf9 lysate by the legends), 20 min at room temperature; imaged before and after eight washes with 20 mM HEPES pH 7.5, 150 mM NaCl, 5 mM DTT; conditions: both partners purified
T2 construct: Atg11, budding yeast; the ATG11 ORF was subcloned with an N-terminal StrepII–GFP tag into a pLIB vector; Used as preformed condensates (20 min at room temperature in 20 mM HEPES pH 7.5, 150 mM NaCl, 5 mM DTT); also called GFP–Atg11 condensates; GFP–Atg11 droplets; source: Sf9 insect cells, baculovirus, purified (Strep-TactinXT); not shown: GFP, N-terminal, kept
T2 sequence (looked up): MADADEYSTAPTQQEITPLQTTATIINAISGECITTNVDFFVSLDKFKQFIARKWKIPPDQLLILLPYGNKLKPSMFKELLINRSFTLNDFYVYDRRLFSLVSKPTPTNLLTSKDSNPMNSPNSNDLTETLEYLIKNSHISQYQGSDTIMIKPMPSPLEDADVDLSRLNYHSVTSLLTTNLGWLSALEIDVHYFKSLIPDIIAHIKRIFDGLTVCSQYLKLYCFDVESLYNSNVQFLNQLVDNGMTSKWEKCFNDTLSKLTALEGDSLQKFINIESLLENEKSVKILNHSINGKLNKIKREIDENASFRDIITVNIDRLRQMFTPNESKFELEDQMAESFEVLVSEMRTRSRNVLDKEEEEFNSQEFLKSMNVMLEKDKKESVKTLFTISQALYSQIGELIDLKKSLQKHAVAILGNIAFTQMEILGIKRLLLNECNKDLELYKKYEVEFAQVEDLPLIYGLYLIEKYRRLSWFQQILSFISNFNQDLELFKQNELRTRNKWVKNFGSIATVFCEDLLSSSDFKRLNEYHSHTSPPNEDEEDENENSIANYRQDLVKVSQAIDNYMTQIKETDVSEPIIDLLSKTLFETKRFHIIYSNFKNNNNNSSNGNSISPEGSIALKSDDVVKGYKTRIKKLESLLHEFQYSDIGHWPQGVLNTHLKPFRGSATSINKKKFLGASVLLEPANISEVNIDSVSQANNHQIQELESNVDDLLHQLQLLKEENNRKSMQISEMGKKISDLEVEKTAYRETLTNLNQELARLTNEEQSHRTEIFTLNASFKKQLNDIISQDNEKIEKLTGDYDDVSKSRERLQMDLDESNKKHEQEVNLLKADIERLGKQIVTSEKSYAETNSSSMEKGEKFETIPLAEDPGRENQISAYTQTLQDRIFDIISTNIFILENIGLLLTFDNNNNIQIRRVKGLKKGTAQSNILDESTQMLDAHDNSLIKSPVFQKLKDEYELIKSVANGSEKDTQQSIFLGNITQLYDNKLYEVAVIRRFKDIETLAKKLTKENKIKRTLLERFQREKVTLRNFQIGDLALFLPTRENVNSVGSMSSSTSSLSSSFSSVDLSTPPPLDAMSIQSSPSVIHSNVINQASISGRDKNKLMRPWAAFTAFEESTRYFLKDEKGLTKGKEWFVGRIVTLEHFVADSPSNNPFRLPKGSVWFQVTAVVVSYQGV

B1: Atg19^3D (natural protein, budding yeast, UniProt P35193 1-415, looked up)
chain: MNNSKTNQQMNTSMGYPLTVYDECNKFQLIVPTLDANIMLWCIGQLSLLNDSNGCKHLFWQPNDKSNVRILLNNYDYGHLFKYLQCQRKCSVYIGEGTLKKYNLTISTSFDNFLDLTPSEEKESLCREDAHEDPVSPKAGSEEEISPNSTSNVVVSRECLDNFMKQLLKLEESLNKLELEQKVTNKEPNHRISGTIDIPEDRSELVNFFTELKTVKQLEDVFQRYHDYERLSQECDSKTEIASDHSKKETKIEVEPPNERSLQITMNQRDNSLYFQLFNNTNSVLAGNCKLKFTDAGDKPTTQIIDMGPHEIGIKEYKEYRYFPYALDLEAGSTIEIENQYGEVIFLGKYGSSPMINLRPPSRLSAESLQASQEPFYSFQIDTLPELDDDDIISTDISLSYDGDDNEKALTWEEL
notes: Atg19, budding yeast, phospho-mimetic mutant S390D, S391D, S396D; also called purified recombinant Atg19^3D; source: E. coli BL21(DE3), expressed as GST–Atg19^3D from pGEX-4T.1, purified (GSH beads, thrombin elution, Superdex200); not shown: GST, N-terminal, cleaved
- binding result (GST–Atg11^685–1178): binds

B2: GST–mTagBFP–Atg19^3D (natural protein, budding yeast, UniProt P35193 1-415, looked up)
chain: MNNSKTNQQMNTSMGYPLTVYDECNKFQLIVPTLDANIMLWCIGQLSLLNDSNGCKHLFWQPNDKSNVRILLNNYDYGHLFKYLQCQRKCSVYIGEGTLKKYNLTISTSFDNFLDLTPSEEKESLCREDAHEDPVSPKAGSEEEISPNSTSNVVVSRECLDNFMKQLLKLEESLNKLELEQKVTNKEPNHRISGTIDIPEDRSELVNFFTELKTVKQLEDVFQRYHDYERLSQECDSKTEIASDHSKKETKIEVEPPNERSLQITMNQRDNSLYFQLFNNTNSVLAGNCKLKFTDAGDKPTTQIIDMGPHEIGIKEYKEYRYFPYALDLEAGSTIEIENQYGEVIFLGKYGSSPMINLRPPSRLSAESLQASQEPFYSFQIDTLPELDDDDIISTDISLSYDGDDNEKALTWEEL
notes: Atg19, budding yeast, phospho-mimetic mutant S390D, S391D, S396D; also called GST–BFP–Atg19^3D; Atg19^3D-decorated beads; not shown: GST, N-terminal, kept; mTagBFP, N-terminal, kept
- binding result (StrepII–GFP–Atg11): binds

B3: GST–BFP–Vac8 (natural protein, budding yeast, UniProt P39968 1-578, looked up)
chain: MGSCCSCLKDSSDEASVSPIADNEREAVTLLLGYLEDKDQLDFYSGGPLKALTTLVYSDNLNLQRSAALAFAEITEKYVRQVSREVLEPILILLQSQDPQIQVAACAALGNLAVNNENKLLIVEMGGLEPLINQMMGDNVEVQCNAVGCITNLATRDDNKHKIATSGALIPLTKLAKSKHIRVQRNATGALLNMTHSEENRKELVNAGAVPVLVSLLSSTDPDVQYYCTTALSNIAVDEANRKKLAQTEPRLVSKLVSLMDSPSSRVKCQATLALRNLASDTSYQLEIVRAGGLPHLVKLIQSDSIPLVLASVACIRNISIHPLNEGLIVDAGFLKPLVRLLDYKDSEEIQCHAVSTLRNLAASSEKNRKEFFESGAVEKCKELALDSPVSVQSEISACFAILALADVSKLDLLEANILDALIPMTFSQNQEVSGNAAAALANLCSRVNNYTKIIEAWDRPNEGIRGFLIRFLKSDYATFEHIALWTILQLLESHNDKVEDLVKNDDDIINGVRKMADVTFERLQRSGIDVKNPGSNNNPSSNDNNSNNNDTGSEHQPVEDASLELYNITQQILQFLH
notes: Vac8, vacuolar membrane protein, budding yeast; The results text says GST–Vac8, the legend GST–BFP–Vac8; also called GST–Vac8; recombinant GST–Vac8; not shown: GST, N-terminal, kept; BFP, N-terminal, kept
- binding result (StrepII–GFP–Atg11): binds
